Biological target: L-lactate oxidase (UniProt Q44467)
Experiment: ITC

Chain of UniProt Q44467 (Q44467 whole entry): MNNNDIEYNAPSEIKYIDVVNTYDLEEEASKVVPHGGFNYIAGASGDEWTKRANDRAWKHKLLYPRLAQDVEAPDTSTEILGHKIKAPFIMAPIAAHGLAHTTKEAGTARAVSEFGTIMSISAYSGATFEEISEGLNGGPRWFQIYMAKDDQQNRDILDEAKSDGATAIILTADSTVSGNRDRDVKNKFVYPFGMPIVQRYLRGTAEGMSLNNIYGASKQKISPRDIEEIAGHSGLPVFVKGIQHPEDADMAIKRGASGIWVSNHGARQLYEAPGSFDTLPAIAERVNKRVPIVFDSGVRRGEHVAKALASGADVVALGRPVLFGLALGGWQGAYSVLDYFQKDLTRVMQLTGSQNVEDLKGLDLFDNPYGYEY

Poly-L-lysine hydrobromide (molecular weight 4,000-15,000 Da) (peptide)
maximum enthalpy: 0.7 kcal/mol
